Among the data in patent US20200362046A1 (published 2020) are ELISA ratio values, retold here.

In experiment [1] the target is KIR-Fc (purified recombinant "target"-Fc protein). The experiment is described as follows: phage ELISA on purified target-Fc; signal over non-specific control (e.g., IgG1-Fc); average where several clones share the sequence. In general terms: An ELISA detects its analyte on a solid surface through an enzyme-linked reagent.
The target is the same in experiment [2]. As to the kind of experiment: phage ELISA on purified target-Fc; signal over non-specific control (e.g., IgG1-Fc).
For experiment [3], the target named is T1, PD-L1-Fc (purified recombinant "target"-Fc protein) (UniProt Q9NZQ7 19-238).
T1 construct: also called B7-H1; not shown: Fc part of the fusion
Described as above. Here is the method:
Selections were also performed using F1, F2, F3. C1 & C2 trinucleotide phosphoramidite libraries. In most cases, libraries were pooled prior to use in selection. By combining equal volumes of the individual libraries. Pool F (libraries F1, F2 and F3) and Pool C (libraries C1 and C2) were generated. These libraries were used in selections for DBDpp binders to 4-1BB/CD137 as well as a larger panel of purified recombinant “target”-Fc proteins, including CD47, CTLA4. DR5, KIR. LAG3, OX40, PD1, PD-L1 and TIM3. (Many of these targets are considered immuno-regulatory factors (Pardoll et al., Nat. Rev. Cancer 12:252-264 (2012)). After incubation of the target with the pools of DBDpp phage libraries, bound phage-target complexes were captured and separated from unbound phage with protein A beads (target proteins were Fc fusions). Alter three rounds of selection, rescued phage clones were screened by ELISA for binding to the selected target.
For each target, approximately 90 DBDpp phage clones were screened by ELISA for binding to the target protein and as well as a non-specific control (e.g., IgG1-Fc). […] In some instances, for the ELISA screening plate in which the majority of DBDpp clones were positive, the entire plate was sequenced.

T1 sequence (Q9NZQ7 19-238 limits assumed): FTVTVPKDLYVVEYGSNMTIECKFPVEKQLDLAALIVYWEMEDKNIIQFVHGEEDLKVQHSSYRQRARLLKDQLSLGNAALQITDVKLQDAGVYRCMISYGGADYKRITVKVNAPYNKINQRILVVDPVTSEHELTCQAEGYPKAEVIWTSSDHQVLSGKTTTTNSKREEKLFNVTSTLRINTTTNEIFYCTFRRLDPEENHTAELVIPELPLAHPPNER

B1: SEQ ID NO 36 (designed binder)
chain: MGSWYEFYNRLYAIEIRLYALGGSEAELAAFEKEIAAFESELQAYKGKGNPEVERLRVRAAKIRVILQAYRHN
As to B1, the ELISA ratio in experiment [1] was 4.24.

B2: SEQ ID NO 35 (designed binder)
chain: MGSWSEFYNRLDAIESRLLALGGSEAELALFEIQIARFEKVLQAYKGKGNPEVEALRGEARAIFAELYAYRHN
For B2, the ELISA ratio in experiment [1] is 8.4.

B3: SEQ ID NO 37 (designed binder)
chain: MGSWLWFKIFLAEIKYFLEALGGSEAELAAFDFEIHAFHVELFAYKGKGNPEVEVLREVAAEIRWDLQAYRHN
As for B3, in experiment [2], the ELISA ratio worked out at 4.17.

B4: SEQ ID NO 60 (designed binder)
chain: MGSWYEFTVRLEAIHERLKALGGSEAELAAFEKEIAAFESELQAYKGKGNPEVEILRDDAAFIRRFLQAYRHN
notes: also called DBDpp; library F3
In the case of B4, the ELISA ratio in experiment [3] was found to be 17.3 ratio.

B5: SEQ ID NO 61 (designed binder)
chain: MGSWYEFDDRLNAIHDRLQALGGSEAELAAFEKEIAAFESELQAYKGKGNPEVEDLRDDAAFIRRFLQAYRHN
notes: also called DBDpp; library F3
Consider B5, for which, in experiment [3], the ELISA ratio was 12.2 ratio.
